B1: 3BP-4262 (peptide)
peptide: {DOTA-AEEA}-DCE[dP]DWLTW[Dap]C-NH2
modifications: lactam 10-1; linker 2-11 via mXylylene
SMILES: CC(C)C[C@@H]1NC(=O)[C@H](Cc2c[nH]c3ccccc23)NC(=O)[C@H](CC(=O)O)NC(=O)[C@H]2CCCN2C(=O)[C@H](CCC(=O)O)NC(=O)[C@@H]2CSCc3cccc(c3)CSC[C@@H](C(N)=O)NC(=O)[C@H](CNC(=O)C[C@H](NC(=O)COCCOCCNC(=O)CN3CCN(CC(=O)O)CCN(CC(=O)O)CCN(CC(=O)O)CC3)C(=O)N2)NC(=O)[C@H](Cc2c[nH]c3ccccc23)NC(=O)[C@H]([C@@H](C)O)NC1=O
B2: 3BP-4305 (peptide)
peptide: {DOTA-APAc″}-VYCE[dP]D[Af3(CMPy)]LTWSC-NH2
modifications: linker 3-12 via mXylylene
B3: 3BP-4333 (peptide)
peptide: {DOTA-APAc″}-VYCE[dP]E(N4BzlSO2Me)WLTWSC-NH2
modifications: linker 3-12 via mXylylene
B4: 3BP-4334 (peptide)
peptide: {DOTA-APAc″}-VYCE[dP]E(N4BzlCl)WLTWSC-NH2
modifications: linker 3-12 via mXylylene; reading uncertain
B5: 3BP-4340 (peptide)
peptide: {DOTA-APAc″}-VYCE[dP]E(N4BzlCN)WLTWSC-NH2
modifications: linker 3-12 via mXylylene; not fully specified; reading uncertain
B6: 3BP-4345 (peptide)
peptide: {DOTA-APAc″}-VYCE[dP]E(N4BzlCONH2)WLTWSC-NH2
modifications: linker 3-12 via mXylylene; not fully specified; reading uncertain
B7: 3BP-4339 (peptide)
peptide: {DOTA-APAc″}-VYCE[dP]E(NOAzOMe)WLTWSC-NH2
modifications: linker 3-12 via mXylylene; reading uncertain
B8: 3BP-4371 (peptide)
peptide: {DOTA-APAc}-VYCE[dP]D[Af3(HYDAc)]LTWSC-NH2
modifications: linker 3-12 via mXylylene; reading uncertain
B9: 3BP-4390 (peptide)
peptide: {DOTA-APAc}-VYCE[dP]E(N6MeQuion)WLTWSC-NH2
modifications: linker 3-12 via mXylylene; reading uncertain
B10: 3BP-4498 (peptide)
peptide: {DOTA-PPAc}-DCE[dP]D[Aph(SaPr)]LTW[Dap]C-NH2
modifications: lactam 1-10; linker 2-11 via mXylylene
B11: 3BP-4458 (peptide)
peptide: {DOTA-APAc}-VYCE[dP]D[Aph(HYDAc)]LTWSC-NH2
modifications: linker 3-12 via mXylylene; reading uncertain
B12: 3BP-4389 (peptide)
peptide: {DOTA-APAc}-VYCE[dP]E(N4DazPhCN)WLTWSC-NH2
modifications: linker 3-12 via mXylylene; reading uncertain
B13: 3BP-4388 (peptide)
peptide: {DOTA-APAc}-VYCE[dP]E(N4AzPhCONH2)WLTWSC-NH2
modifications: linker 3-12 via mXylylene; reading uncertain
B14: 3BP-4399 (peptide)
peptide: {DOTA-APAc}-VYCE[dP]D[Aph(3MSaBz)]LTWSC-NH2
modifications: linker 3-12 via mXylylene; reading uncertain
B15: 3BP-4441 (peptide)
peptide: {DOTA-APAc}-VYCE[dP]E(NH3PhSa)WLTWSC-NH2
modifications: linker 3-12 via mXylylene; reading uncertain
B16: 3BP-4442 (peptide)
peptide: {DOTA-APAc}-VYCE[dP]E(NH4PhSa)WLTWSC-NH2
modifications: linker 3-12 via mXylylene; reading uncertain
B17: 3BP-4398 (peptide)
peptide: {DOTA-APAc}-VYCE[dP]D[Aph(4SaBz)]LTWSC-NH2
modifications: linker 3-12 via mXylylene; reading uncertain
B18: 3BP-4480 (peptide)
peptide: {DOTA-PPAc″}-QCE[dP]D[Aph(5SaPyr2)]LTWSC-NH2
modifications: linker 2-11 via mXylylene; reading uncertain
B19: 3BP-4368 (peptide)
peptide: {DOTA-APAc}-VYCE[dP]D[Af3(HO-Dga)]LTWSC-NH2
modifications: linker 3-12 via 3MeBn″; reading uncertain
B20: 3BP-4446 (peptide)
peptide: {DOTA-PPAc″}-YCE[dP]DWLTWSC-NH2
modifications: linker 2-11 via mXylylene; reading uncertain
B21: 3BP-4387 (peptide)
peptide: {DOTA-APAc}-VYCE[dP]E(N4Inda)WLTWSC-NH2
modifications: linker 3-12 via mXylylene; reading uncertain
B22: 3BP-4456 (peptide)
peptide: {DOTA}-[Pip]YCE[dP]D[Phe(3-NHCO(CH2)3SO2NH2)]LTWSC-NH2
modifications: linker 3-12 via mXylylene
SMILES: CC(C)C[C@@H]1NC(=O)[C@H](Cc2cccc(NC(=O)CCCS(N)(=O)=O)c2)NC(=O)[C@H](CC(=O)O)NC(=O)[C@H]2CCCN2C(=O)[C@H](CCC(=O)O)NC(=O)[C@@H](NC(=O)[C@H](Cc2ccc(O)cc2)NC(=O)[C@@H]2CCCCN2C(=O)CN2CCN(CC(=O)O)CCN(CC(=O)O)CCN(CC(=O)O)CC2)CSCc2cccc(c2)CSC[C@@H](C(N)=O)NC(=O)[C@H](CO)NC(=O)[C@H](Cc2c[nH]c3ccccc23)NC(=O)[C@H]([C@@H](C)O)NC1=O

Starred links: 1 amine or outer side, 2 acyl side, 3 side chain; linkers in the order of their positions; H or OH if unused. Positions of bridges follow the written chain, without caps; N, C: chain ends. Non-standard residues stand in square brackets, D forms with d. Primed or numbered codes have the meaning given here. *: point of attachment. Af3(CMPy) = 3-amino-L-phenylalanine acylated on the ring amine with 5-cyano-1-methyl-1H-pyrazole-4-carboxylic acid, Cn1ncc(C(=O)Nc2cccc(C[C@H](N[*:1])C(=O)[*:2])c2)c1C#N; Aph(5SaPyr2) = 4-amino-L-phenylalanine, ring amine acylated by 5-sulfamoylpyridine-2-carboxylic acid, NS(=O)(=O)c1ccc(C(=O)Nc2ccc(C[C@H](N[*:1])C(=O)[*:2])cc2)nc1; Aph(3MSaBz) = 4-aminophenylalanine, ring amine acylated with 3-(sulfamoylmethyl)benzoic acid, NS(=O)(=O)Cc1cccc(C(=O)Nc2ccc(C[C@H](N[*:1])C(=O)[*:2])cc2)c1; Aph(4SaBz) = 4-aminophenylalanine, ring amine acylated with 4-sulfamoylbenzoic acid, NS(=O)(=O)c1ccc(C(=O)Nc2ccc(C[C@H](N[*:1])C(=O)[*:2])cc2)cc1; Af3(HO-Dga) = 3-aminophenylalanine, ring amine acylated with carboxymethoxy-acetic acid, O=C(COCC(=O)[*:3])Nc1cccc(C[C@H](N[*:1])C(=O)[*:2])c1; Af3(HYDAc) = 3-aminophenylalanine, ring amine acylated with hydantoin-5-acetic acid, O=C(CC1NC(=O)NC1=O)Nc1cccc(C[C@H](N[*:1])C(=O)[*:2])c1; Aph(SaPr) = 4-amino-L-phenylalanine, ring amine acylated by 3-sulfamoylpropanoic acid, NS(=O)(=O)CCC(=O)Nc1ccc(C[C@H](N[*:1])C(=O)[*:2])cc1; 3MeBn″ = 3-methylbenzylidene, m-xylene unit (from alpha,alpha'-dibromo-m-xylene) joined to both Cys S by thioether linkages; Aph(HYDAc) = 4-amino-L-phenylalanine, ring amine acylated by hydantoin-5-acetic acid; Phe(3-NHCO(CH2)3SO2NH2) = N[C@@H](Cc1cccc(NC(=O)CCCS(N)(=O)=O)c1)C(=O)O; APAc″ = 2-(4-(amino)piperidin-1-yl)acetic acid, NC1CCN(CC(=O)*)CC1; DOTA = O=C(O)CN1CCN(CC(=O)O)CCN(CC(=O)*)CCN(CC(=O)O)CC1; PPAc = 4-carboxymethyl piperazine linker; mXylylene = c1cc(C[*:1])cc(C[*:2])c1; N4AzPhCONH2 = not defined here; N4BzlCONH2 = not defined here; N4DazPhCN = not defined here; N6MeQuion = not defined here; N4BzlCN = not defined here; N4BzlCl = not defined here; NH3PhSa = not defined here; NH4PhSa = not defined here; NOAzOMe = not defined here; N4Inda = not defined here; Pip = O=C(O)[C@@H]1CCCCN1; PPAc″ = not defined here; APAc = not defined here; Dap = NC[C@H](N)C(=O)O; AEEA = NCCOCCOCC(=O)O

In one assay the target is human carbonic anhydrase 9 (CAIX) (human, UniProt Q16790 38-459). Put plainly: FACS competition on HT-29 cells, competitor tracer 3BP-4149; category B = pIC50 7.1-8.0. As for the experimental part: (§1) CAIX-expressing human HT-29 colorectal cancer cells (DSMZ, RRID: CVCL_0320) were cultured in McCoys's 5A modified medium (Biochrom, #F1015) including 10% fetal calf serum (FCS), 2 mM L-glutamine, 100 U/ml penicillin and 100 μg/mL streptomycin. Cells were detached with Accutase (Biolegend, #423201) and washed in FACS buffer (PBS including 1% FCS). Cells were diluted in FACS buffer to a final concentration of 500.000 cells per ml. 200 μL of the cell suspension were transferred to a u-shaped non-binding 96-well plate (Greiner) and cells were washed in ice-cold FACS buffer.
(§2) When biotinylated compounds were used an additional incubation step with 1 μg/mL APC-Streptavidin (Miltenyi; #130-106-791) in 50 μL FACS buffer for 30 minutes on ice was performed.
(§3) Cells were washed twice with ice-cold FACS buffer and analyzed in an Attune NxT flow cytometer (Thermo Fisher). Median fluorescence intensities (MFI) of the APC/Cy5-channel were calculated by Attune NxT software.
Turning to B1, the pIC50 lay within 7.1 to 8 pic50. Same read-out and setting: the figure for B2 is 7.1 to 8 pic50; for B3 it is 7.1 to 8 pic50.

In turn, B4 returned a pIC50 of 7.1 to 8 pic50.

B5 displayed a pIC50 of 7.1 to 8 pic50.

For the molecule B6, the pIC50 is 7.1 to 8 pic50. Molecule B7 came in with a pIC50 of 7.1 to 8 pic50.

The target in another assay is human carbonic anhydrase IX (CAIX) (human, UniProt Q16790 38-459). Put plainly: FACS competition, HT-29 cells, tracer 3BP-4149; pIC50 category B: 7.1-8.0. As for the experimental part:
as §1, §2, §3
As for B8, the pIC50 was in the range of 7.1 to 8 pic50. Still for that read-out and setting: the figure for B9 is 7.1 to 8 pic50. B10 yielded a pIC50 of 7.1 to 8 pic50. B11 showed a pIC50 of 7.1 to 8 pic50. B12 gave a pIC50 of 7.1 to 8 pic50. B13: the pIC50 is 7.1 to 8 pic50.

In turn, B14 showed a pIC50 of 7.1 to 8 pic50. On the same count and under the same terms, the figure for B15 is 7.1 to 8 pic50; for B16 it is 7.1 to 8 pic50. The same measure, in the same setting: then B17, with 7.1 to 8 pic50; and B18, with 7.1 to 8 pic50. The same measure, in the same setting: then B19, with 7.1 to 8 pic50.

Molecule B20 registered a pIC50 of 7.1 to 8 pic50. Molecule B21 came in with a pIC50 of 7.1 to 8 pic50. B22 gave a pIC50 of 7.1 to 8 pic50.

The target in a further assay is T1, Fc-fusion protein of human carbonic anhydrase IX (human, UniProt Q16790 38-414). The assay is described as follows: SPR, captured hCAIX-Fc; t1/2 category C: 2.1-5.0 min. As for the experimental part: Stock solutions of test compounds were prepared by dissolving each compound in DMSO. DMSO stock solution were diluted 1:1000 in Running Buffer without DMSO. […] SPR binding analyses were performed in Single Cycle Kinetic (SCK) mode at 25° C.
For each test compound, SPR raw data in the form of resonance units (RU) were plotted as sensorgrams using the Biacore™ T200 control software. The signal from the blank sensorgram was subtracted from that of the test compound sensorgram (blank corrected). The blank corrected sensorgram was corrected for baseline drift by subtracting the sensorgram of a SCK run without the test compound (running buffer only). […] Raw data and fit results were imported as text files in IDBS. The pKD value (negative decadic logarithm of dissociation constant) was calculated in the IDBS excel template.
In general terms: Surface plasmon resonance follows binding to a sensor surface in real time, without labels.
As to B8, the “t1/2 (half-life of the complex, SPR)” value fell in the range of 2.1 to 5 min. Still for that read-out and setting: the figure for B17 is 2.1 to 5 min; for B18 it is 2.1 to 5 min.

Consider B19, for which the “t1/2 (half-life of the complex, SPR)” value is 2.1 to 5 min.

B20: the “t1/2 (half-life of the complex, SPR)” value is 2.1 to 5 min.

Another assay addresses T1, Fc-fusion protein of human carbonic …. The assay is described as follows: SPR, captured hCAIX-Fc; pKD category A: >8.0.
In the case of B8, the pKD was > 8 pkd. For B10, the pKD is > 8 pkd. Same read-out and setting: then B15, with > 8 pkd; and B16, with > 8 pkd. Same read-out and setting: the figure for B17 is > 8 pkd; for B19 it is > 8 pkd; for B20 it is > 8 pkd. On the same count and under the same terms, the figure for B21 is > 8 pkd; for B22 it is > 8 pkd.

The target is the same in a further assay. Put plainly: SPR, captured hCAIX-Fc; t1/2 category A: >15.0 min.
In the case of B10, the “t1/2 (half-life of the complex, SPR)” value was > 15 min. On the same count and under the same terms, the figure for B15 is > 15 min; for B16 it is > 15 min; for B21 it is > 15 min. Still for that read-out and setting: the figure for B22 is > 15 min.

The values are drawn from patent publication US20250339569A1 (3B PHARMACEUTICALS, published 2025).
